One molecule from patent US20230340154A1 (Hoffmann-La Roche, published 2023) can be followed below.

In the assay the target is T1, murine CD40 (mouse, UniProt P27512 20-289).
T1 construct: Endogenous CD40 on cells in the tumor microenvironment of C57BL/6J mice; also called mouse CD40; muCD40
T1 sequence: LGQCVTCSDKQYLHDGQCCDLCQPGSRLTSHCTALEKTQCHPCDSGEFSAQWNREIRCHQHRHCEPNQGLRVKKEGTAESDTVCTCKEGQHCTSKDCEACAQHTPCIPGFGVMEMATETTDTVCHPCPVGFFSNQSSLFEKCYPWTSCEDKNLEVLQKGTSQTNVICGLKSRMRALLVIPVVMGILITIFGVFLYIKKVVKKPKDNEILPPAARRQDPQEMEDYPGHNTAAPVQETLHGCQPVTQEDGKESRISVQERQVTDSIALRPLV
Briefly: in vivo fluorescence imaging of the Alexa647-labelled antibody in TC-1 tumors (devoid of FAP expression), four days after i.p. injection. From the text: To assess FAP-CD40 antibody access to the TC-1 tumor, we intraperitoneally injected the anti-FAP-CD40 antibody labeled with Alexa647 into TC-1 and mEERL95 tumor-bearing mice that underwent local irradiation. The antibody was detectable in both tumors four days upon administration. No significant difference in the fluorescence intensity was detected in both TC-1 and mEERL95 tumors (FIG. 4H) which present similar CD40 mRNA expression levels (FIG. 4C).

B1: muCD40 x FAP (28H1) 4+1 bispecific antibody (VH on knob and VL on hole) (P1AD9139) (bispecific antibody)
light: DTVLTQSPALAVSPGERVTISCRASDSVSTLMHWYQQKPGQQPKLLIYLASHLESGVPARFSGSGSGTDFTLTIDPVEADDTATYYCQQSWNDPWTFGGGTKLELKRTVAAPSVFIFPPSDEQLKSGTASVVCLLNNFYPREAKVQWKVDNALQSGNSQESVTEQDSKDSTYSLSSTLTLSKADYEKHKVYACEVTHQGLSSPVTKSFNRGEC
heavy 1: not shown
heavy 2: EVQLVESDGGLVQPGRSLKLPCAASGFTFSDYYMAWVRQAPTKGLEWVASISYDGSSTYYRDSVKGRFTISRDNAKSTLYLQMDSLRSEDTATYYCGRHSSYFDYWGQGVMVTVSSASTKGPSVFPLAPSSKSTSGGTAALGCLVKDYFPEPVTVSWNSGALTSGVHTFPAVLQSSGLYSLSSVVTVPSSSLGTQTYICNVNHKPSNTKVDKKVEPKSCDGGGGSGGGGSEVQLVESDGGLVQPGRSLKLPCAASGFTFSDYYMAWVRQAPTKGLEWVASISYDGSSTYYRDSVKGRFTISRDNAKSTLYLQMDSLRSEDTATYYCGRHSSYFDYWGQGVMVTVSSASTKGPSVFPLAPSSKSTSGGTAALGCLVKDYFPEPVTVSWNSGALTSGVHTFPAVLQSSGLYSLSSVVTVPSSSLGTQTYICNVNHKPSNTKVDKKVEPKSCDKTHTCPPCPAPEAAGGPSVFLFPPKPKDTLMISRTPEVTCVVVDVSHEDPEVKFNWYVDGVEVHNAKTKPREEQYNSTYRVVSVLTVLHQDWLNGKEYKCKVSNKALGAPIEKTISKAKGQPREPQVCTLPPSRDELTKNQVSLSCAVKGFYPSDIAVEWESNGQPENNYKTTPPVLDSDGSFFLVSKLTVDKSRWQQGNVFSCSVMHEALHNHYTQKSLSLSPGGGGGSGGGGSGGGGSGGGGSEIVLTQSPGTLSLSPGERATLSCRASQSVSRSYLAWYQQKPGQAPRLLIIGASTRATGIPDRFSGSGSGTDFTLTISRLEPEDFAVYYCQQGQVIPPTFGQGTKVEIK
notes: Four anti-mouse CD40 (FGK4.5) Fabs, human IgG1 P329G LALA knob-into-hole Fc, and 28H1 VH on the knob chain and VL on the hole chain; That paragraph says only 'anti-FAP-CD40 antibody'; also called FAP-CD40; anti-FAP-CD40
Turning to B1, the binding result was “binds”.
